According to patent publication US20050283857A1 (UNIVERSITY OF GEORGIA RESEARCH FOUNDATION, published 2005):

Molecular target: Cry1Ab toxin (Bacillus thuringiensis)
Assay: 125I-Cry1Ab toxin binding saturation assay on S2 cells; dissociation constant (Kcom)

B1: Cad7-12 truncated Bt-R1a cadherin expressed in S2 cells (receptor)
chain: GTLEQNFRVREMSAGGLVVGSVRADDIDGPLYNQVRYTIFPREDTDKDLIMIDFLTGQISVNTSGAIDADTPPRFHLYYTVVASDRCSTEDPADCPPDPTYWETEGNITIHITDTNNKVPQAETTKFDTVVYIYENATHLDEVVTLIASDLDRDEIYHTVSYVINYAVNPRLMNFFSVNRETGLVYVDYETQGSGEVLDRDGDEPTHRIFFNLIDNFMGEGEGNRNQNDTEVLVILLDVNDNAPELPPPSELSWTISENLKQGVRLEPHIFAPDRDEPDTDNSRVGYEILNLSTERDIEVPELFVMIQIANVTGELETAMDLKGYWGTYAIHIRAFDHGIPQMSMNETYELIIHPFNYYAPEFVFPTNDAVIRLARERAVINGVLATVNGEFLERISATDPDGLHAGVVTFQVVGDEESQRYFQVVNDGANLGSLRLLQAVPEEIREFRITIRATDQGTDPGPLSTDMTFRVVFVPTQGEPRFASSEHAVAFIEKSAGMEESHQLPLAQDIKNHLCEDDCHSIYYRIIDGNSEGHFGLDPVRNRLFLKKELIREQSASHTLQVAASNSPDGGIPLPASILTVTVTVREADPRPVFMRELYTAGISTADSIGRELLRLHATQSEGAAITYAIDYDTMVVDPSLEAVRQSAFVLNAQTGVLTLNIQPTATMHGLFKFEVTATDTAGAQDRTDVTVYVVSSQNRVYFVFVNTLQQVEDNRDFIADTFSAGFNMTCNIDQVVPANDPVTGVALEHSTQMRGHFIRDNVPVLADEIEQIRSDLVLLSSIQTTLAARSLVLQDLLTNSSPDSAPDSSLTVYVLASLSAVLGFMCLVLLLTFIIRTRALNRRLEALSMTKYGSLDSGLNRAGIAAPGTNKHTVEGSNPIFNEAIKTPDLDAISEGSNDSDLIGIEDLPHFGNVFMDPEVNEKANGYPEVANHNNNFAFNPTPFSPEFVNGQFRKI
- Kd: 2.05 nM
